As a reminder, the pKd is the negative decadic logarithm of the Kd, by convention in mol/L. One may read the stoichiometry N as the number of molecules, sites or subunits per partner or assembly.

We go through 5 substances from publication PMC3618186.

pKd: −log10 of the molar value.

Experiment [1] has as its target Cytoplasmic dynein 1 intermediate chain 2, isoform 2C, N-terminal fragment IC1-124 (UniProt Q62871). Description: sedimentation equilibrium analytical ultracentrifugation (Beckman-Coulter XLI, absorbance optics). The settings on record: 4 °C.
Experiment [2] deals with dynactin p150^Glued coiled-coil 1B (CC1B), residues 381–530 (R. norvegicus) (UniProt P28023). Description: SEC; equimolar IC-TcTex1-LC8 complex and p150Glued fragment (CC1, CC1A, CC1B), alone or in combination, analytical Superdex 200 10/300 GL; fractions checked by SDS-PAGE. (In gel filtration, larger molecules generally elute earlier.)
The target of experiment [3] is dynactin p150^Glued coiled-coil 1 (CC1) (R. norvegicus) (UniProt P28023). The experiment is described as above.
For experiment [4] the target is unchanged. Description: AUC; sedimentation equilibrium of the p150Glued fragments alone, 4°C, 1x PBS, 1 mM TCEP; monomer-dimer model (dimer to monomers).
Experiment [5] has as its target p150Glued CC1 (Drosophila melanogaster) (UniProt P13496). Description: ITC. As to conditions: cited from earlier work.
Experiment [6] concerns the target dynactin p150^Glued coiled-coil 1 (CC1) (R. norvegicus) (UniProt P28023). Description: AUC; sedimentation equilibrium, stoichiometric CC1 + IC 1-124, 4°C, 500 mM NaCl; model CC1 dimer + 2 IC, constant in M^2.
Experiment [7] has the same target. Description: AUC; sedimentation equilibrium, CC1 + IC 1-124, 4°C, pH 9.0; model CC1 dimer + 2 IC, constant in M^2.
Experiment [8] has the same target. Description: AUC; sedimentation equilibrium, stoichiometric CC1 + IC 1-124, 4°C, 100 mM NaCl; model CC1 dimer + 2 IC, constant in M^2.
The target is the same in experiment [9]. Description: AUC; sedimentation equilibrium, CC1 + IC 1-124, 4°C, pH 8.0; model CC1 dimer + 2 IC, constant in M^2.
The target of experiment [10] is dynactin p150^Glued coiled-coil 1B (CC1B), residues 381–530 (R. norvegicus) (UniProt P28023). Description: AUC; sedimentation equilibrium of admixtures of p150Glued fragment and IC 1-124, 4°C, 1x PBS, 1 mM TCEP; model p150 dimer + 2 IC -> dimer-IC2, constant in M^2; CC1A: 10 μM + 10 μM.
The target of experiment [11] is dynactin p150^Glued coiled-coil 1A (CC1A), residues 204–348 (R. norvegicus) (UniProt P28023). Described as above.
Experiment [12] addresses dynactin p150^Glued coiled-coil 1 (CC1) (R. norvegicus) (UniProt P28023). The experiment is described as above.
For experiment [13] the target is unchanged. Description: AUC; sedimentation equilibrium, stoichiometric CC1 + IC 1-124, 4°C, 250 mM NaCl; model CC1 dimer + 2 IC, constant in M^2.
Experiment [14] has the same target. Description: AUC; sedimentation equilibrium, CC1 + IC 1-124, 4°C, pH 7.0; model CC1 dimer + 2 IC, constant in M^2.
Experiment [15] shares this target. Description: AUC; sedimentation equilibrium, stoichiometric CC1 + IC 1-124, 4°C, 1000 mM NaCl; model CC1 dimer + 2 IC, constant in M^2.

Chain of Cytoplasmic dynein 1 intermediate chain 2, isoform 2C, N-terminal fragment IC1-124 (Q62871 whole entry, the tested form may be a part, canonical isoform): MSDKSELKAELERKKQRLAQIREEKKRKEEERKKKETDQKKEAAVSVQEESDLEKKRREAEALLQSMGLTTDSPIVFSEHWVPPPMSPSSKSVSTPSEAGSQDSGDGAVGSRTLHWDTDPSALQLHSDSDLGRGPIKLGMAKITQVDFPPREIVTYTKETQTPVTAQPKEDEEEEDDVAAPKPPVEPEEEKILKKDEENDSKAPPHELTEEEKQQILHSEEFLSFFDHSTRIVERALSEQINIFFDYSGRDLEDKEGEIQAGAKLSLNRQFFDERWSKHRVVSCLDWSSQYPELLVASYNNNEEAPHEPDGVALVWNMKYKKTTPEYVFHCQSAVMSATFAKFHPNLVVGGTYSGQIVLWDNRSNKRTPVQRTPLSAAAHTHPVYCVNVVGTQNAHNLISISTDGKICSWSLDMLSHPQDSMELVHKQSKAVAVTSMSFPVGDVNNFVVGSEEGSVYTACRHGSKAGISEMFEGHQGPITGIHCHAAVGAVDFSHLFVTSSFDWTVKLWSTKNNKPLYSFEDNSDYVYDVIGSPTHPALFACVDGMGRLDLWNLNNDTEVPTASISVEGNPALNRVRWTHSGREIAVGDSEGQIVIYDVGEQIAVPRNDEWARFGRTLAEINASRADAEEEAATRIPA
Chain of p150Glued CC1 (Drosophila melanogaster) (P13496 221-509): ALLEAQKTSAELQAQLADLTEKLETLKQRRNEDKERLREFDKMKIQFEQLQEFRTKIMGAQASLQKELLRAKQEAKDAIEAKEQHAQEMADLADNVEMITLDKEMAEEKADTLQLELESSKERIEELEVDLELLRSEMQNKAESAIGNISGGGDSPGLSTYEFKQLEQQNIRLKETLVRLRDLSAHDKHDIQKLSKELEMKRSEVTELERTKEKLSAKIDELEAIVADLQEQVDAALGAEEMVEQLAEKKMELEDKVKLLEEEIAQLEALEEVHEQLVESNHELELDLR
Chain of dynein intermediate chain (Q24246 whole entry): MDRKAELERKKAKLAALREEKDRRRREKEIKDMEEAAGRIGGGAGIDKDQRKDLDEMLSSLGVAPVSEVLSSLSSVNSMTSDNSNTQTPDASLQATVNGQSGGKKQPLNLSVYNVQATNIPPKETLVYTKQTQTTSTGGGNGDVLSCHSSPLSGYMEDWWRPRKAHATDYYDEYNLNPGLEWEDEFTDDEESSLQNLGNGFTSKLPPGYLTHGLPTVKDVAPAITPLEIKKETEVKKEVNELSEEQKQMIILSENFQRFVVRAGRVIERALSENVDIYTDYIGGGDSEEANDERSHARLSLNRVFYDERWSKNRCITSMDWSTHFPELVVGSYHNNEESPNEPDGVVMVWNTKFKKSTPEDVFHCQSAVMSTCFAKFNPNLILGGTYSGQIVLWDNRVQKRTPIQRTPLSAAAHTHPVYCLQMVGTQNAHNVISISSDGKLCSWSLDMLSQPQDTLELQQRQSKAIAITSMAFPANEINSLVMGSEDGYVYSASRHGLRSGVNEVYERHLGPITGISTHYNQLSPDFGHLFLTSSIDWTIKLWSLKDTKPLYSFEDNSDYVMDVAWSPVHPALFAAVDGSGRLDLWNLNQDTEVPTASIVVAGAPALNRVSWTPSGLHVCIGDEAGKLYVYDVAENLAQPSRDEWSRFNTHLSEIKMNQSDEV

Take “Dynactin subunit 1 (p150Glued) CC1 fragment”: the dissociation constant in experiment [1] (pH 7.0, not stated (pH series 6.0, 7.0, 8.0, 9.0; buffer substances not named)) is on record as ≤10^−13 M^2; in [1] (pH 7.4, 1x PBS: 137 mM NaCl, 2.7 mM KCl, 1x PBS (4.3 mM Na2HPO4, 1.47 mM KH2PO4, pH 7.4)), <10^−15 M^2; in experiment [1] (pH 8.0, not stated (pH series 6.0, 7.0, 8.0, 9.0; buffer substances not named)), ≤10^−14 M^2; in experiment [1] (pH 9.0, not stated (pH series 6.0, 7.0, 8.0, 9.0; buffer substances not named)), ≤10^−12 M^2.
For the substance “IC2B^1–158-TcTex1-LC8 complex (from UniProt Q9Z336 1-113; P63170 1-89)”, the change in elution volume of the IC complex in experiment [2] was determined as 1.26 mL; in experiment [3], 2.22 mL.
As for “dynactin p150^Glued coiled-coil 1 (CC1) (from UniProt P28023 204-530) (domain or fragment)”, in experiment [4], the pKd is greater than 9.00 and the stoichiometry N is 2.
Take “dynein intermediate chain (from UniProt Q24246)”: the negative logarithm of the Kd (pKd) in [5] is 5.46.
Regarding “dynein intermediate chain isoform 2C, residues 1–124 (domain or fragment)”, the overall dissociation constant, p150 dimer + 2 IC in experiment [6] is 1e-10 M^2; in experiment [7] it was less than 1e-12 M^2; in experiment [8], greater than 1e-15 M^2; in [9] it was less than 1e-14 M^2; in experiment [11], greater than 1e-10 M^2; in experiment [12], less than 1e-15 M^2. Further, the overall dissociation constant, p150 dimer + 2 IC is 1e-12 M^2 in [13], less than 1e-13 M^2 in experiment [14] and 1e-08 M^2 in experiment [15]. Further, the overall dissociation constant on the scale of Figure S4B (scale not told, presumably -log10) in experiment [10] is 12. Besides, the stoichiometry N (IC per CC1B dimer) in experiment [10] stood at 2. Further, the stoichiometry N (IC per CC1 dimer) in experiment [12] was determined as 2.
